Sequences and labels used below:
B1: HDV Ribozyme (parent)
chain: GGCCGGCAUGGUCCCAGCCUCCUCGCUGGCGCCGGCUGGGCAACAUUCCGAGGGGACCGUCCCCUCGGUAAUGGCGAAUGGGACCCA

The variants in the data set derive from B1. Kind of data set: self-cleavage, relative activity (ratio to wild type); higher = more cleavage; co-transcriptional.
Take A56C A87U: the self-cleavage turned out to be 0.986.

For the variant C57G C62A, the self-cleavage is 0.957.

Turning to G53C G55C, the self-cleavage was 1.05.

As to G54U C86A, the self-cleavage was determined as 0.799.

As to G54U C86U, the self-cleavage is 0.882.

Regarding G54U C86G, the self-cleavage worked out at 1.01.

For the variant G54C A56G, the self-cleavage amounted to 0.808.

As to G54A A83U, the self-cleavage came to 0.509.

In the case of G54A A83C, the self-cleavage is 0.277.

Consider G54A A83G, for which the self-cleavage amounted to 0.692.

Regarding C57U G82C, the self-cleavage was 0.208.

On to C57U G82A, for which the self-cleavage is 0.269.

With G54A A87C, the self-cleavage is 1.06.

Regarding G54A C57G, the self-cleavage was 0.903.

Regarding C57A A83U, the self-cleavage stood at 0.554.

For the variant G55U G59U, the self-cleavage was 1.02.

In the case of C57A A71U, the self-cleavage turned out to be 0.929.

With C57A U65A, the self-cleavage was determined as 1.09.

G55A C85U: the self-cleavage worked out at 0.885.

For G55A C85A, the self-cleavage turned out to be 1.02.

With A56G C84G, the self-cleavage was found to be 0.598.

For the variant G55A G81U, the self-cleavage was determined as 0.34.

Regarding C57A G80U, the self-cleavage was 0.253.

Regarding C57A G80A, the self-cleavage was 0.218.

Take G54C C58A: the self-cleavage stood at 0.923.

With A56U A70C, the self-cleavage came to 0.811.

A56U A70G: the self-cleavage worked out at 1.07.

Take C57A G74U: the self-cleavage was determined as 0.356.

A56U C61U: the self-cleavage was 0.755.

Regarding C57A U69C, the self-cleavage came to 0.892.

C57A U69A: the self-cleavage was 0.969.

As to G55A A83C, the self-cleavage worked out at 0.731.

A56C C63G: the self-cleavage amounted to 0.608.

C57U C63G: the self-cleavage is 1.12.

For the variant C57U C63U, the self-cleavage was 0.958.

Take C57G A71C: the self-cleavage was found to be 0.852.

As to C57G C84G, the self-cleavage is 0.831.

Regarding A56G U79A, the self-cleavage came to 0.277.

As for A56G U79C, the self-cleavage came to 0.242.

As for G55U A78C, the self-cleavage was determined as 0.18.

In the case of G53C U60G, the self-cleavage came to 1.01.

For the variant A56G U72A, the self-cleavage is 0.643.

Take A56G U72C: the self-cleavage stood at 0.782.

For the variant A56U C58G, the self-cleavage was determined as 1.08.

A56U C58A: the self-cleavage worked out at 1.16.

For C57A C66G, the self-cleavage amounted to 0.985.

On to G54A G59C, for which the self-cleavage came out at 1.07.

Turning to G54A G59A, the self-cleavage stood at 1.01.

As to G55C C63A, the self-cleavage came to 1.06.

Turning to C58A A83U, the self-cleavage turned out to be 0.554.

With G53U U65C, the self-cleavage worked out at 0.819.

Regarding A56C G82C, the self-cleavage came out at 0.306.

C57U G59U: the self-cleavage came to 1.2.

For the variant G55A C61A, the self-cleavage is 0.956.

Consider G55A C61G, for which the self-cleavage was 1.06.

In the case of G54U C61U, the self-cleavage is 0.895.

In the case of G55U G80A, the self-cleavage was found to be 0.477.

As to C57U U65A, the self-cleavage came out at 0.917.

Take C57U U65G: the self-cleavage worked out at 0.919.

On to G54A C58U, for which the self-cleavage amounted to 1.22.

As to G54A C58A, the self-cleavage amounted to 0.773.

Turning to C57A C58U, the self-cleavage is 1.05.

C57A C58G: the self-cleavage was 1.14.

Turning to C57G A78C, the self-cleavage is 0.0959.

For C57U C66G, the self-cleavage was 1.07.

On to C57U C66A, for which the self-cleavage is 0.878.

With G54U A77G, the self-cleavage is 0.878.

Take G54U A77U: the self-cleavage was found to be 0.688.

Take C57G A70G: the self-cleavage worked out at 0.856.

For the variant G55C G82A, the self-cleavage was determined as 0.447.

On to G54C U72G, for which the self-cleavage was found to be 0.431.

Consider G54A G80A, for which the self-cleavage was found to be 0.443.

Consider G53U G76A, for which the self-cleavage was found to be 1.09.

As to G55C U65G, the self-cleavage is 1.06.

With C57A C61G, the self-cleavage was determined as 1.05.

Consider G54A U72C, for which the self-cleavage worked out at 0.61.

Take G54A U72G: the self-cleavage was determined as 0.453.

G54C A83U: the self-cleavage is 0.631.

Regarding C57U G67U, the self-cleavage was 0.974.

For C57G U60A, the self-cleavage was 0.987.

As to C57G U60C, the self-cleavage turned out to be 1.07.

Consider A56C A78G, for which the self-cleavage is 0.706.

Take G55C G67A: the self-cleavage was 1.08.

As to G55A A56C, the self-cleavage amounted to 0.895.

For A56G C86G, the self-cleavage was 1.17.

Consider G55A C57U, for which the self-cleavage was found to be 0.925.

As to A56U G67A, the self-cleavage turned out to be 1.17.

Turning to G55U G67C, the self-cleavage amounted to 1.06.

On to A56G U65C, for which the self-cleavage was determined as 1.05.

On to G55A A77C, for which the self-cleavage was found to be 0.302.

For C57G C85U, the self-cleavage worked out at 0.849.

For G55A C64U, the self-cleavage is 1.04.

For C57G G68A, the self-cleavage was 1.18.

G54A A77C: the self-cleavage is 0.383.

For the variant C57G U72G, the self-cleavage stood at 0.733.

For the variant A56U G76C, the self-cleavage came to 1.14.

Turning to A56U G76U, the self-cleavage is 0.95.

In the case of A56G U69G, the self-cleavage was 0.831.

Regarding G55U G74C, the self-cleavage was found to be 0.208.

With G55U G74U, the self-cleavage came out at 0.707.

For the variant C57U C58U, the self-cleavage came out at 1.3.

On to G54U U69C, for which the self-cleavage turned out to be 1.16.

For the variant A56C A71C, the self-cleavage amounted to 0.997.

A56C A71U: the self-cleavage is 1.11.

Turning to C57A A70U, the self-cleavage is 1.25.

Consider G55U U72C, for which the self-cleavage worked out at 0.703.

Take C58A A70G: the self-cleavage is 0.807.

Take C58A A70C: the self-cleavage was determined as 1.04.

With A56G A87U, the self-cleavage is 0.897.

In the case of A56G A87G, the self-cleavage was determined as 0.929.

Consider G55C C86G, for which the self-cleavage is 1.09.

For G55C C86U, the self-cleavage is 1.12.

In the case of G55C G80C, the self-cleavage amounted to 0.388.

Consider C57U U79C, for which the self-cleavage was found to be 0.237.

In the case of G53U C57A, the self-cleavage worked out at 0.944.

On to G54C C62A, for which the self-cleavage is 0.967.

G55A C84U: the self-cleavage came to 0.741.

On to C57U G80C, for which the self-cleavage was found to be 0.145.

As for A56C U65G, the self-cleavage was 0.985.

G53U C64A: the self-cleavage amounted to 0.777.

On to G54C G76A, for which the self-cleavage worked out at 1.1.

A56U C66A: the self-cleavage is 1.03.

Consider A56U C66G, for which the self-cleavage was determined as 0.997.

In the case of G55U C64G, the self-cleavage came to 0.781.

For the variant G55U C57G, the self-cleavage amounted to 0.997.

On to A56G G73U, for which the self-cleavage turned out to be 0.249.

Turning to A56G G73C, the self-cleavage came to 0.38.

On to C57A C85A, for which the self-cleavage was determined as 1.05.

Turning to C57A C85G, the self-cleavage is 0.748.

For A56U C75A, the self-cleavage was found to be 0.0875.

For the variant A56U C75G, the self-cleavage came to 0.151.

Take G53U A77G: the self-cleavage was found to be 0.8.

For the variant A56C A70G, the self-cleavage is 1.05.

On to A56C A70U, for which the self-cleavage is 1.16.

In the case of A56C A70C, the self-cleavage is 1.12.

For A56G G76C, the self-cleavage turned out to be 1.16.

With G55A A71G, the self-cleavage was determined as 1.1.

On to G55A A71U, for which the self-cleavage was found to be 0.652.

With G55A A71C, the self-cleavage amounted to 0.978.

For A56C C61U, the self-cleavage is 0.942.

Turning to G55C G73C, the self-cleavage amounted to 0.479.

For G53U A56G, the self-cleavage is 1.03.

In the case of G53U A56U, the self-cleavage was 0.956.

Turning to G55U A83C, the self-cleavage is 0.554.

In the case of G54A A70U, the self-cleavage was found to be 0.843.

Consider G53U U60A, for which the self-cleavage was determined as 0.997.

As to A56G U60G, the self-cleavage is 0.831.

Consider G53U A83U, for which the self-cleavage is 0.609.

Consider G55A C86U, for which the self-cleavage was 0.989.

On to G54U G55U, for which the self-cleavage stood at 0.921.

Consider C57U C75U, for which the self-cleavage was found to be 0.188.

Take G55A C62U: the self-cleavage stood at 1.03.

With G55A C62A, the self-cleavage turned out to be 1.01.

For C57G G67A, the self-cleavage came to 0.909.

Turning to A56C U72A, the self-cleavage came to 0.95.

For the variant G55C C61A, the self-cleavage is 1.06.

For C57U C62A, the self-cleavage turned out to be 0.941.

As to A56C C58G, the self-cleavage was found to be 1.26.

Take C57G U79C: the self-cleavage was 0.598.

With C57G U79A, the self-cleavage worked out at 0.802.

Regarding C57A G76U, the self-cleavage was 1.16.

For G54C G82A, the self-cleavage turned out to be 0.226.

Consider G54C G82U, for which the self-cleavage amounted to 0.448.

G53U G81A: the self-cleavage came out at 0.445.

Turning to C57U A87C, the self-cleavage came to 1.17.

Consider C57U A87G, for which the self-cleavage turned out to be 0.979.

Consider A56G A77C, for which the self-cleavage stood at 0.199.
